Data reported in US20260216354A1, “ANTI-CMET ANTIBODY, ANTIBODY-DRUG CONJUGATE, AND PREPARATION METHOD THEREFOR AND USE THEREOF” (MEDILINK THERAPEUTICS (SUZHOU) CO., LTD., priority 2022, published 2026).

B1: ABT700-vc-MMAE (DAR9.7) (antibody, INN chains, looked up, V domains shown)
VH: QVQLVQSGAEVKKPGASVKVSCKASGYIFTAYTMHWVRQAPGQGLEWMGWIKPNNGLANYAQKFQGRVTMTRDTSISTAYMELSRLRSDDTAVYYCARSEITTEFDYWGQGTLVTVSS
VL: DIVMTQSPDSLAVSLGERATINCKSSESVDSYANSFLHWYQQKPGQPPKLLIYRASTRESGVPDRFSGSGSGTDFTLTISSLQAEDVAVYYCQQSKEDPLTFGGGTKVEIK
modifications: vc-MMAE, DAR 9.7
B2: ABT700-Vc-MMAE (DAR4) (antibody, INN chains, looked up, V domains shown)
VH: B1 VH
VL: B1 VL
modifications: vc-MMAE, DAR 4

How the values were obtained:
[1] = molecular target: human c-Met on tumor cells (MKN45, NCI-H358, NCI-H69, LS1034, NCI-H716, MDA-MB-468) (human) (UniProt P08581); assay: flow cytometry on LS1034 cells
Chain of human c-Met on tumor cells (MKN45, NCI-H358, NCI-H69, LS1034, NCI-H716, MDA-MB-468) (human) (P08581 25-1390): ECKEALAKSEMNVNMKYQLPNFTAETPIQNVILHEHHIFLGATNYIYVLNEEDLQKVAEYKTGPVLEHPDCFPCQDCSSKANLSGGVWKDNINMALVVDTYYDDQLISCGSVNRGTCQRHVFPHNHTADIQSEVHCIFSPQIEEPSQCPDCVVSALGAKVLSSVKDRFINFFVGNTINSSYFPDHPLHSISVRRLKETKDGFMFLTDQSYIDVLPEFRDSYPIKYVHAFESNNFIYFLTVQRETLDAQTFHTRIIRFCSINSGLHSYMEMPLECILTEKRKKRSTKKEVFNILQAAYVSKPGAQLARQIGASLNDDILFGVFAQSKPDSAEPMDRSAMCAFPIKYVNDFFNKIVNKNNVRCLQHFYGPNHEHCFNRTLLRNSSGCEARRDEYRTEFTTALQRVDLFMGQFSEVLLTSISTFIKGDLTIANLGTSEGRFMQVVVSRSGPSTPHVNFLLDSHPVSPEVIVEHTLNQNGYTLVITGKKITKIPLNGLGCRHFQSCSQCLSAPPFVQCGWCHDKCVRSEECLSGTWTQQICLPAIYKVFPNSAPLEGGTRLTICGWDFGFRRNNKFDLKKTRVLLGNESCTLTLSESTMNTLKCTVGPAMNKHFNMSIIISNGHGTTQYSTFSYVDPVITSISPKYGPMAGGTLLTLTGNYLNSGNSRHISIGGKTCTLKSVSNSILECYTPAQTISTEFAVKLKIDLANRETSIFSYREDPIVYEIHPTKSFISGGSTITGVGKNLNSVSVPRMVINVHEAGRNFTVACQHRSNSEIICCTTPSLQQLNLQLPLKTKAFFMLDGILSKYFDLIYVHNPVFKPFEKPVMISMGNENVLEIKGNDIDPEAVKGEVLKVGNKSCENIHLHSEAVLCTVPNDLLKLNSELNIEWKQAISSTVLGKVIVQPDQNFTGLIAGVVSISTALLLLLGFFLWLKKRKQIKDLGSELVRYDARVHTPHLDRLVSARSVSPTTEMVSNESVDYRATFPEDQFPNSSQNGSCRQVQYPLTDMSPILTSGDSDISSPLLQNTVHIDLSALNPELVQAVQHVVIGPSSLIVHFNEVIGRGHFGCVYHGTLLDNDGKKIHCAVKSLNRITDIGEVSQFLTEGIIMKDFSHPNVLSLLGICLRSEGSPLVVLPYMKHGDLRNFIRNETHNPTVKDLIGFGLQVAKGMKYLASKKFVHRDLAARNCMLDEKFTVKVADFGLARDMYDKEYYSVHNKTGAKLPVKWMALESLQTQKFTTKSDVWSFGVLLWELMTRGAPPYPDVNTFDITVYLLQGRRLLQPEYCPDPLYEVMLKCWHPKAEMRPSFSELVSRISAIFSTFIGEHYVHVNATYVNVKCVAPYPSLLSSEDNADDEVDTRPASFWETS

[2] = molecular target: human c-Met on tumor cells (MKN45, NCI-H358, NCI-H69, LS1034, NCI-H716, MDA-MB-468) (human) (UniProt P08581); assay: flow cytometry on NCI-H69 cells
[3] = molecular target: human c-Met on tumor cells (MKN45, NCI-H358, NCI-H69, LS1034, NCI-H716, MDA-MB-468) (human) (UniProt P08581); assay: flow cytometry on NCI-H358 cells
[4] = molecular target: h.cMet-ECD-His (Human HGF R/c-MET Protein, His Tag, Acrobiosystems MET-H5227) (human) (UniProt P08581); assay: ELISA, h.cMet-ECD-His captured by anti-His-Rabbit Fc
Chain of h.cMet-ECD-His (Human HGF R/c-MET Protein, His Tag, Acrobiosystems MET-H5227) (human) (P08581 25-932): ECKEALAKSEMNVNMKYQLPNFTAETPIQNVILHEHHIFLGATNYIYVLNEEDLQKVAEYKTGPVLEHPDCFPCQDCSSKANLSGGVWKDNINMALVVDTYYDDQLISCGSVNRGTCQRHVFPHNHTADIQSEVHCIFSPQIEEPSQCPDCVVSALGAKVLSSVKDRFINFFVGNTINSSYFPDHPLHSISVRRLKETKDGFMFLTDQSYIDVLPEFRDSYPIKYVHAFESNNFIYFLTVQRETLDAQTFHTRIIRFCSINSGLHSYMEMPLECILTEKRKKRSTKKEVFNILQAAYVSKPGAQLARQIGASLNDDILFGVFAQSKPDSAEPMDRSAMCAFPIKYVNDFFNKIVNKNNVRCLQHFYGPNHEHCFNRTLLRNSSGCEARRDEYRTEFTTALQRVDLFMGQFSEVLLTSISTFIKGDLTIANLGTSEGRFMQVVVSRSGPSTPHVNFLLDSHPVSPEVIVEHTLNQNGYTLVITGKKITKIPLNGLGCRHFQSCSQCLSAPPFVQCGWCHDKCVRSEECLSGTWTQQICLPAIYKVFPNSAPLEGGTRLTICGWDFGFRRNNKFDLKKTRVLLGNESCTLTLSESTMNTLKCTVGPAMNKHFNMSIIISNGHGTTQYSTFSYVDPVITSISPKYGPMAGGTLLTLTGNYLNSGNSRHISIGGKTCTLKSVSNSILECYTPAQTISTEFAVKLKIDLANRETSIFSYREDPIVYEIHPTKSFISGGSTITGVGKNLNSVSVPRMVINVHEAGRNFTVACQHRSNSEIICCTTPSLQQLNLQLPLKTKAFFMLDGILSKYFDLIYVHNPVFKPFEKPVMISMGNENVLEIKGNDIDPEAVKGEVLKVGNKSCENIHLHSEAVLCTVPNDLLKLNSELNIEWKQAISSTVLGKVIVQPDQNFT

[5] = molecular target: human c-Met on tumor cells (MKN45, NCI-H358, NCI-H69, LS1034, NCI-H716, MDA-MB-468) (human) (UniProt P08581); assay: flow cytometry on NCI-H716 cells

| Binder | EC50 [1] [nM] | Maximum signal value [1] | EC50 [2] [nM] | Maximum signal value [2] | EC50 [3] [nM] | Maximum signal value [3] | EC50 [4] [µg/mL] | EC50 [5] [nM] | Maximum signal value [5] |
| --- | --- | --- | --- | --- | --- | --- | --- | --- | --- |
| B1 | 0.852 | 8960 | 0.212 | 8210 | 0.917 | 32400 | 2.43 | – | – |
| B2 | – | – | – | – | – | – | – | 11.6 | 3740 |
